Assay results reported in publication doi:10.1101/506113 (bioRxiv, 2018).

Biological target: LgB-NIX (NIX with Large BiT at its N-terminal end) (UniProt O60238 1-219)
Assay: split reporter

Sequence of LgB-NIX (NIX with Large BiT at its N-terminal end) (O60238 whole entry): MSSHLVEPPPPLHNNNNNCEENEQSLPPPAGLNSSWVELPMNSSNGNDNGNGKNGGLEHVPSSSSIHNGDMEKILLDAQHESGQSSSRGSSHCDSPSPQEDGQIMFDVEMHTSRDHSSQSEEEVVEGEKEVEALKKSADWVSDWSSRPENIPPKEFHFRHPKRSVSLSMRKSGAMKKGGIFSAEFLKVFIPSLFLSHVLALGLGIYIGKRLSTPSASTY

B1: vIRF-1-SmB (vIRF-1 with Small BiT at its C-terminal end) (natural protein)
chain: MDPGQRPNPFGAPGAIPKKPCLSQGSPGTSGSGAPCDEPSRSESPGEGPSGTGGSAAAGDITRQAVVAAITEWSRTRQLRISTGASEGKASIKDWIVCQVNSGKFPGVEWEDEERTRFRIPVTPLADPCFEWRRDGELGVVYIRERGNMPVDASFKGTRGRRRMLAALRRTRGLQEIGKGISQDGHHFLVFRVRKPEEEQCVECGVVAGAVHDFNNMARLLQEGFFSPGQCLPGEIVTPVPSCTTAEGQEAVIDWGRLFIRMYYNGEQVHELLTTSQSGCRISSALRRDPAVHYCAVGSPGQVWLPNVPNLACEIAKRELCDTLDACAKGILLTSSCNGIFCVCYHNGPVHFIGNTVPPDSGPLLLPQGKPTRIFNPNTFLVGLANSPLPAPSHVTCPLVKLWLGKPVAVGKLEPHAPSPRDFAARCSNFSDACVVLEIMPKPLWDAMQ
  fold luminescence over HT-SmB with LgB-NIX: 10 fold
